Experimental data taken from publication PMC8812556 (Proceedings of the National Academy of Sciences of the …, 2022).

What was measured:
[1] = target: FITC-labeled BiP-NBD (D27C variant) (UniProt P20029); experiment: fluorescence polarisation
[2] = target: BiP double-mutant G518C and Y636C labelled with AlexaFluor 555 and AlexaFluor 647 (UniProt P20029); experiment: other fluorescence titration
cross-linking = target: the molecule itself; experiment: cross-linking

Q: “M86C cross-linked Grp94 (from UniProt P08113 72-765) (natural protein)” was tested. Which fold affinity enhancement versus wild-type Grp94 [1] did it give?
A: 50 fold

Q: Which Kd [2] does the source give for “Mouse E-peptide containing an N-terminal six-histidine tag and S95C mutation (domain or fragment)” here?
A: 130 nM

Q: For “Wild-type mouse Grp94 (72 to 765) (from UniProt P08113 72-765) (natural protein)”, which Kd [1] is on record?
A: 950 nM

B1: Grp94 M86C (natural protein, mouse, UniProt P08113 72-765, looked up)
chain: KSEKFAFQAEVNRMCKLIINSLYKNKEIFLRELISNASDALDKIRLISLTDENALAGNEELTVKIKCDKEKNLLHVTDTGVGMTREELVKNLGTIAKSGTSEFLNKMTEAQEDGQSTSELIGQFGVGFYSAFLVADKVIVTSKHNNDTQHIWESDSNEFSVIADPRGNTLGRGTTITLVLKEEASDYLELDTIKNLVRKYSQFINFPIYVWSSKTETVEEPLEEDEAAKEEKEESDDEAAVEEEEEEKKPKTKKVEKTVWDWELMNDIKPIWQRPSKEVEEDEYKAFYKSFSKESDDPMAYIHFTAEGEVTFKSILFVPTSAPRGLFDEYGSKKSDYIKLYVRRVFITDDFHDMMPKYLNFVKGVVDSDDLPLNVSRETLQQHKLLKVIRKKLVRKTLDMIKKIADEKYNDTFWKEFGTNIKLGVIEDHSNRTRLAKLLRFQSSHHSTDITSLDQYVERMKEKQDKIYFMAGSSRKEAESSPFVERLLKKGYEVIYLTEPVDEYCIQALPEFDGKRFQNVAKEGVKFDESEKTKESREATEKEFEPLLNWMKDKALKDKIEKAVVSQRLTESPCALVASQYGWSGNMERIMKAQAYQTGKDISTNYYASQKKTFEINPRHPLIRDMLRRIKEDEDDKTVMDLAVVLFETATLRSGYLLPDTKAYGDRIERMLRLSLNIDPEAQVEEEPEEEPED
Q: Does B1 bind (cross-linking)?
A: binds
